Measurements published in article doi:10.1101/2021.06.15.448513.

Target: PaPlaB, phospholipase B of Pseudomonas aeruginosa PA01 (gene pa2927) (P. aeruginosa PA01)
Assay: SEC-MALS

With “PaPlaB, phospholipase B of Pseudomonas aeruginosa PA01 (gene pa2927) (enzyme)” the stoichiometry N was 7.
